Measurements: IntAct's records for PubMed 20562859

B1: Gamma-aminobutyric acid receptor-associated protein (Homo sapiens), O95166 (parent)
chain: MKFVYKEEHPFEKRRSEGEKIRKKYPDRVPVIVEKAPKARIGDLDKKKYLVPSDLTVGQFYFLIRKRIHLRAEDALFFFVNNVIPPTSATMGQLYQEHHEEDFFLYIAYSDESVYGL
partner: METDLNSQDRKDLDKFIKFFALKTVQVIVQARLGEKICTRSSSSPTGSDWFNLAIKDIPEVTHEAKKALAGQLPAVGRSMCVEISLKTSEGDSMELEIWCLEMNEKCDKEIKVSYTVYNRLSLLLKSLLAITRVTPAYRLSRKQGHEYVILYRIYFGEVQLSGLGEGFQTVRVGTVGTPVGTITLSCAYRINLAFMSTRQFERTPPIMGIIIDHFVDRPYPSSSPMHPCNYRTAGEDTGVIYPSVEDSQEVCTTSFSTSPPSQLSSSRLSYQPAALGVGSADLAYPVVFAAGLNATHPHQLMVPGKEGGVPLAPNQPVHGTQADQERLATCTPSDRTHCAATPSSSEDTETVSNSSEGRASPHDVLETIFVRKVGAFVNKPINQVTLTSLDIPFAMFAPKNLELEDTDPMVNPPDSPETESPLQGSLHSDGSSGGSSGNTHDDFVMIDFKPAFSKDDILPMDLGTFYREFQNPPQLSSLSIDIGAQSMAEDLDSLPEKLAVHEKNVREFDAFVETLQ
B2: Gamma-aminobutyric acid receptor-associated protein (Homo sapiens), O95166 (parent)
chain: B1 chain
B3: Gamma-aminobutyric acid receptor-associated protein (Homo sapiens), O95166 (parent)
chain: B1 chain
partner: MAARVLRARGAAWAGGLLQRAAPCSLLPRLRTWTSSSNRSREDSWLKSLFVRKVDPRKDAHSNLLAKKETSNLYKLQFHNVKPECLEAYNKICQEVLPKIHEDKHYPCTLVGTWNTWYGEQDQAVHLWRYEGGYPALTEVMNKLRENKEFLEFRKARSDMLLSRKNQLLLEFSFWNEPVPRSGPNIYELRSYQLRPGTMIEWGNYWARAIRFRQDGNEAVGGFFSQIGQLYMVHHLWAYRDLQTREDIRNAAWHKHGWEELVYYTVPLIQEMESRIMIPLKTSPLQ
B4: Gamma-aminobutyric acid receptor-associated protein (Homo sapiens), O95166 (parent)
chain: B1 chain
partner: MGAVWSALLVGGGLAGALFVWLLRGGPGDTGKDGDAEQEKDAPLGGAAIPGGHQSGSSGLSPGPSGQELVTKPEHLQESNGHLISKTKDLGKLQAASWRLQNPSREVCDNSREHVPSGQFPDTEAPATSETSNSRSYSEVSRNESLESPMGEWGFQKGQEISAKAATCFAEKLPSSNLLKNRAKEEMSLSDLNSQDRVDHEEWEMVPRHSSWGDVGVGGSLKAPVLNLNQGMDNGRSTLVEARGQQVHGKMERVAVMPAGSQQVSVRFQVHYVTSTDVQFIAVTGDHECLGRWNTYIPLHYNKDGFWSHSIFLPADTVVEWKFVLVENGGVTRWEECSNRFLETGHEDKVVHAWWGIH
B5: Gamma-aminobutyric acid receptor-associated protein (Homo sapiens), O95166 (parent)
chain: B1 chain
partner: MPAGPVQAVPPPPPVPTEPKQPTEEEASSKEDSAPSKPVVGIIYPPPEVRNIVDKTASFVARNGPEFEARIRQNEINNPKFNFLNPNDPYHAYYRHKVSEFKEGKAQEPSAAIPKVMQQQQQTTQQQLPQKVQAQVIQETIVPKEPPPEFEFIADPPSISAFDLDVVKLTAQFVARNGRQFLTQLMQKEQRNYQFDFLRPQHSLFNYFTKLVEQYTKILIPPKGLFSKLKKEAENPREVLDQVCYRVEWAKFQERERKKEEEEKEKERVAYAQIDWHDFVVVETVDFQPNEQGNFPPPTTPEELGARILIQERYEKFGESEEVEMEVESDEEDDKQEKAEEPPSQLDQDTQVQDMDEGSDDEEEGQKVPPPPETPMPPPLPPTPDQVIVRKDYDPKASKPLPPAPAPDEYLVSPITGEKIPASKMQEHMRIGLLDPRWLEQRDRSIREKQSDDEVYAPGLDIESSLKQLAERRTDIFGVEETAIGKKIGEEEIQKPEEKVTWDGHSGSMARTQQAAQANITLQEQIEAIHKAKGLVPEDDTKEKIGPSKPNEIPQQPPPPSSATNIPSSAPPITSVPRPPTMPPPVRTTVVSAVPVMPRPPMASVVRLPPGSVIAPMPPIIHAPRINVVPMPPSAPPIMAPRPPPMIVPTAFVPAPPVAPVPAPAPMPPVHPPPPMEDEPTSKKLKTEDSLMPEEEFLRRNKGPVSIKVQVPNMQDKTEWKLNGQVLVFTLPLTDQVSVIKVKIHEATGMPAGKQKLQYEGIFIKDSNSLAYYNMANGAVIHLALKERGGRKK
B6: Gamma-aminobutyric acid receptor-associated protein (Homo sapiens), O95166 (parent)
chain: B1 chain
partner: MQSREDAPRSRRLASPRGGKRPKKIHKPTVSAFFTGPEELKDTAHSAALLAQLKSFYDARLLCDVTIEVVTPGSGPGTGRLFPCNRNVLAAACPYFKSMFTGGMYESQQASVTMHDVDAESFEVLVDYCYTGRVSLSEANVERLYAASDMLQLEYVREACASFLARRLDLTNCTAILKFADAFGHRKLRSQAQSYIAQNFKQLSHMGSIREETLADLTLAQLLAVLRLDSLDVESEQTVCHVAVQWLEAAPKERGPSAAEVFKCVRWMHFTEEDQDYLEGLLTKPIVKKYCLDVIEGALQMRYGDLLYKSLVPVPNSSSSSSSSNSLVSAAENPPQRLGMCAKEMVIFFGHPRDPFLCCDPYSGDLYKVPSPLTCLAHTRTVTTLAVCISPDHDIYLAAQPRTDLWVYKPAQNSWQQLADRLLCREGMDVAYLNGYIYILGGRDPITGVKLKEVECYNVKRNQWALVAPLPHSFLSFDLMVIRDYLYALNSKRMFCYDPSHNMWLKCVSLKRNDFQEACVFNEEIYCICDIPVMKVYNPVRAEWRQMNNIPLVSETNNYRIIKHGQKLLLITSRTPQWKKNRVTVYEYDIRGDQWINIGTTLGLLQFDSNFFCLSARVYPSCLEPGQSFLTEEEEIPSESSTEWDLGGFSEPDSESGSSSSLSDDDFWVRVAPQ
B7: Gamma-aminobutyric acid receptor-associated protein (Homo sapiens), O95166 (parent)
chain: B1 chain
partner: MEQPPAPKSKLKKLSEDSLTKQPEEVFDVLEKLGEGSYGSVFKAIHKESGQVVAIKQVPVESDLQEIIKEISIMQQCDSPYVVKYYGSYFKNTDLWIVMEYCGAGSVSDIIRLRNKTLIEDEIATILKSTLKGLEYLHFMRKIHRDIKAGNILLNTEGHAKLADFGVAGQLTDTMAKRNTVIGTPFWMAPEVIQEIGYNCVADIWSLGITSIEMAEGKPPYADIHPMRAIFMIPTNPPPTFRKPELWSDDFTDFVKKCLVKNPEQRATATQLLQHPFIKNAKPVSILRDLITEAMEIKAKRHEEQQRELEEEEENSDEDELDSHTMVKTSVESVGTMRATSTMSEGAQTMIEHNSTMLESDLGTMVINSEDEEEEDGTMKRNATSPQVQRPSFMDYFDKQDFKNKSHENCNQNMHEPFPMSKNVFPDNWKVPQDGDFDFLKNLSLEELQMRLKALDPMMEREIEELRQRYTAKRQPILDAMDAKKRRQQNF
B8: Gamma-aminobutyric acid receptor-associated protein (Homo sapiens), O95166 (parent)
chain: B1 chain
partner: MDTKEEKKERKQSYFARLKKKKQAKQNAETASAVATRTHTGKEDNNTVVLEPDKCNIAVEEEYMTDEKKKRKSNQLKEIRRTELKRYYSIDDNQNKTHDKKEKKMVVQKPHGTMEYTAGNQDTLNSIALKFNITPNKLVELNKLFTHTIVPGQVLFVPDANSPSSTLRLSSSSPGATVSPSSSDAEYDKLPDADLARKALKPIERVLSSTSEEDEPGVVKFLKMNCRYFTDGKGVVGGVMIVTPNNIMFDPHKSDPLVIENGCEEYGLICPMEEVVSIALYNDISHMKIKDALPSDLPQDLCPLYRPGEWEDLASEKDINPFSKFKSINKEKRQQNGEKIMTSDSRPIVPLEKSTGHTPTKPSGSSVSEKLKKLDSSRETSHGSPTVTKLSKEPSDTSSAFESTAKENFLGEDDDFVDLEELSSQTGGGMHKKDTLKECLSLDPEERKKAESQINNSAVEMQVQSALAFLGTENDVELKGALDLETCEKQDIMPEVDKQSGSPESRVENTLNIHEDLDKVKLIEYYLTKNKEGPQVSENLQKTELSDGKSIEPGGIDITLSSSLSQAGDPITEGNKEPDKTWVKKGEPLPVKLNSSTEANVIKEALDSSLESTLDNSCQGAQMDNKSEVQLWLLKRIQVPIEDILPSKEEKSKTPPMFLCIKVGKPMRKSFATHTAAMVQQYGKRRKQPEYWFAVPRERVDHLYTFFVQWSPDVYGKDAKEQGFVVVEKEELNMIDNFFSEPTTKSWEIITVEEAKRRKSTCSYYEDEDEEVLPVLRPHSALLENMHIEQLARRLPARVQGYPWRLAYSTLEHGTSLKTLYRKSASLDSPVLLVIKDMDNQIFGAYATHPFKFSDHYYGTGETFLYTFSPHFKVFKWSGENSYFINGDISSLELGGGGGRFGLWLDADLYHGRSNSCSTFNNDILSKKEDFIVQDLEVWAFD
B9: Gamma-aminobutyric acid receptor-associated protein (Homo sapiens), O95166 (parent)
chain: B1 chain
partner: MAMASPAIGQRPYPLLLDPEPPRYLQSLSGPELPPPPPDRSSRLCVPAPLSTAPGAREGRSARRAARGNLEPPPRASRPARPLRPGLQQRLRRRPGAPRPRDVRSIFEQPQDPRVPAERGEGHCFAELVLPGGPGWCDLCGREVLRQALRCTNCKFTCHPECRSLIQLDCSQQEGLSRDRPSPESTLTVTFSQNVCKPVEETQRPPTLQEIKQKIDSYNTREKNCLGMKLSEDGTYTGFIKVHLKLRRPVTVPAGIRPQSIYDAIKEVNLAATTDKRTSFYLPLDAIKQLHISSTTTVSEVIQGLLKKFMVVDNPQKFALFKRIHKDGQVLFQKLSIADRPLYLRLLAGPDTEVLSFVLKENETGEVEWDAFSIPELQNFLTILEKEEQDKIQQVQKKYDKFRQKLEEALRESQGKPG

Variants of: B1
Conditions: with atg13_human ATG13, O75143

| effect of a mutation on the interaction | Variant |
| --- | --- |
| decreasing interaction | Y49A;L50A |

Variants of: B2
Conditions: with atg2a_human ATG2A

| effect of a mutation on the interaction | Variant |
| --- | --- |
| decreasing interaction | Y49A;L50A |

Variants of: B2
Conditions: with atg3_human ATG3, Q9NT62
Chain of atg3_human ATG3, Q9NT62 (Q9NT62 whole entry): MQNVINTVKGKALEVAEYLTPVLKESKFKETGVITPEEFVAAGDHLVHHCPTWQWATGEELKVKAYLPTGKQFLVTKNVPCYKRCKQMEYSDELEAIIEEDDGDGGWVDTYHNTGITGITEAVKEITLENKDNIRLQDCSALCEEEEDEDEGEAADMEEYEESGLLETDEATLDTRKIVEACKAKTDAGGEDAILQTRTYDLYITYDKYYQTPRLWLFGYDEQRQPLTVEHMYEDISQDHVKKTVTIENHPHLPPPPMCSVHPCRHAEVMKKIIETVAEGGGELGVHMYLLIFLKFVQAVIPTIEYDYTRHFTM

| effect of a mutation on the interaction | Variant |
| --- | --- |
| disrupting interaction | Y49A;L50A |

Variants of: B2
Conditions: with echa_human HADHA

| effect of a mutation on the interaction | Variant |
| --- | --- |
| decreasing interaction | Y49A;L50A |

Variants of: B2
Conditions: with nedd4_human NEDD4, P46934
Chain of nedd4_human NEDD4, P46934 (P46934 whole entry): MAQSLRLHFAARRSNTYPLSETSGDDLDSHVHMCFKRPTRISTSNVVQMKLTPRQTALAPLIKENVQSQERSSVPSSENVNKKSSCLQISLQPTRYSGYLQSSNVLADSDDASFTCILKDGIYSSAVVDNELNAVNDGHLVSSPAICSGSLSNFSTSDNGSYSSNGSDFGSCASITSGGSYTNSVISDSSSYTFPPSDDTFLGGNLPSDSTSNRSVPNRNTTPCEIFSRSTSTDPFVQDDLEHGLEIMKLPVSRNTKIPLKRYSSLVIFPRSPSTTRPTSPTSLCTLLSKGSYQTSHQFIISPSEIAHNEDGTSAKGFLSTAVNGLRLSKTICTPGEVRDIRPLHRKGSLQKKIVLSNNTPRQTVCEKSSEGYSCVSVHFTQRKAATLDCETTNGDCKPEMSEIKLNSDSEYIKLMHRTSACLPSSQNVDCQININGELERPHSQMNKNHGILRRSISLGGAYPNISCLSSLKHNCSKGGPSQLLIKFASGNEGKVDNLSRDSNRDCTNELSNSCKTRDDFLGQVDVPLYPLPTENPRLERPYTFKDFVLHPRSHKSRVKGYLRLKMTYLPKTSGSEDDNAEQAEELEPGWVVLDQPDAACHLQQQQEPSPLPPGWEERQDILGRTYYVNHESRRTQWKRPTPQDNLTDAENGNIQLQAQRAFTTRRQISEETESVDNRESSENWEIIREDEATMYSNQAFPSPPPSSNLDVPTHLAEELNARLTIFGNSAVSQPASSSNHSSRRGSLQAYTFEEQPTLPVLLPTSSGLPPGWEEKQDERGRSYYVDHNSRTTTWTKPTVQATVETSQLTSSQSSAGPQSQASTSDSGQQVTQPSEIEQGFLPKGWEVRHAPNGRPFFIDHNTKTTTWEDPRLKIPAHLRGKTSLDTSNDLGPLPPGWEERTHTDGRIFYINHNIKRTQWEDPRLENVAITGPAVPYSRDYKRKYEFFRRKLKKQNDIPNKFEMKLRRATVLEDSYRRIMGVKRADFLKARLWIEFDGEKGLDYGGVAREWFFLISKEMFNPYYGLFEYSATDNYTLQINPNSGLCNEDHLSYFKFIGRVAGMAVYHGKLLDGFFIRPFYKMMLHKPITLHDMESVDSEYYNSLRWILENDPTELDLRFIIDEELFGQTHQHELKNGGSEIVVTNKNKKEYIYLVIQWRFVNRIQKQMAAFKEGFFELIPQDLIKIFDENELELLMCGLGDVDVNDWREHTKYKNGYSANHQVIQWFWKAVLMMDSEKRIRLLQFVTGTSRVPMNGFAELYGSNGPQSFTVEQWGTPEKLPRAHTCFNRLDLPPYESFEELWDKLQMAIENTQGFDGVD

| effect of a mutation on the interaction | Variant |
| --- | --- |
| disrupting interaction | Y49A;L50A |

Variants of: B3
Conditions: with nips2_human NIPSNAP2, O75323

| effect of a mutation on the interaction | Variant |
| --- | --- |
| increasing interaction | Y49A;L50A |

Variants of: B4
Conditions: with stbd1_human STBD1, O95210

| effect of a mutation on the interaction | Variant |
| --- | --- |
| decreasing interaction | Y49A;L50A |

Variants of: B5
Conditions: with sf3a1_human SF3A1, Q15459

| effect of a mutation on the interaction | Variant |
| --- | --- |
| decreasing interaction | Y49A;L50A |

Variants of: B6
Conditions: with kbtb6_human KBTBD6, Q86V97

| effect of a mutation on the interaction | Variant |
| --- | --- |
| decreasing interaction | Y49A;L50A |

Variants of: B7
Conditions: with stk3_human STK3, Q13188

| effect of a mutation on the interaction | Variant |
| --- | --- |
| decreasing interaction | Y49A;L50A |

Variants of: B8
Conditions: with ncoa7_human NCOA7, Q8NI08

| effect of a mutation on the interaction | Variant |
| --- | --- |
| decreasing interaction | Y49A;L50A |

Variants of: B9
Conditions: with rasf5_human RASSF5, Q8WWW0

| effect of a mutation on the interaction | Variant |
| --- | --- |
| increasing interaction | Y49A;L50A |
